Data from patent US20130324474A1 (Eli Lilly, published 2013).
Residue numbers refer to the chain shown, from its start. Numbers in names are those of the source.

Tests used:
human c-Ret = human c-Ret (human, UniProt P07949 29-1114, phosphorylation at Y1016 is the readout); assay: cell-based or functional assay
[1] = target: T1, Recombinant Human GFRα-1/GDNF Rα-1 Fc Chimera (human, UniProt P56159 25-429); assay: ELISA, plate-bound human GFRα1-Fc; 4 C sample
T1 construct: Purchased Fc chimera; It was captured on protein A in Biacore and coated on the plate in ELISA; also called GFRα1-Fc; recombinant human GFRα1-Fc chimera, carrier-free; not shown: Fc part of a purchased Fc chimera
T1 sequence (looked up): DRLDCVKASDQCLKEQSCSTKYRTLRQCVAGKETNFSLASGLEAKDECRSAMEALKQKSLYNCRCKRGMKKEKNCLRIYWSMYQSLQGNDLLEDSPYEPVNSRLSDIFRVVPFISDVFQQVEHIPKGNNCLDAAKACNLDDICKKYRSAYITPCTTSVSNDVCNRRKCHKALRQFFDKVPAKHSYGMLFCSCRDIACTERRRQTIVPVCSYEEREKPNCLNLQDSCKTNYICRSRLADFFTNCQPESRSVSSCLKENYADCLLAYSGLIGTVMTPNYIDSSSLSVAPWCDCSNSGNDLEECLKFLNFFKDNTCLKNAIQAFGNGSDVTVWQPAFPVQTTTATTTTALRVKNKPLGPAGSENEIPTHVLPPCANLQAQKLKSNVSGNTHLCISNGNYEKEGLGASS
Description: GDNF wild type and variants are tested in an ELISA assay, in which binding of the GDNF proteins to the plate-bound receptor (GFRα1) is measured. A “no GDNF” condition and/or an “irrelevant protein” condition are used as negative controls.
Each well of a 96-well plate (Greiner 655081 Immunobind ELISA plates) is coated with 70 μl of human GFRα1 (recombinant human GFRα1-Fc chimera, carrier-free) at 1 μg/ml in carbonate buffer, pH 9.6. If an irrelevant receptor is coated, it is an irrelevant Fc chimera and is coated at the same concentration as GFRα1. The plates are sealed and incubated at 4° C. overnight. The wells are aspirated and washed twice with washing buffer (20 mM Tris (hydroxymethyl) aminomethane, pH 7.4, 0.15 M NaCl, 0.1% Tween-20), using an automatic plate washer. The plates are blocked with 200 μl blocking buffer per well (3% Carnation Instant milk in the above washing buffer) for at least 1 hour at room temperature. Plates are washed twice with washing buffer.
GDNF proteins are serially diluted into blocking buffer at an appropriate concentration range, typically beginning at 5 μg/ml and serially diluting 1:10. A no GDNF control is used, which consists of blocking buffer alone. 50 μl of each GDNF solution is added to the GFRα1 coated wells in triplicate. The plates are incubated for 1.5 hours at room temperature. The wells are then washed 3 times with washing buffer.

[2] = target: T1, Recombinant Human GFRα-1/GDNF Rα-1 Fc …; assay: Biacore (SPR), GFRα-1; 4 C sample of the 4-week stability comparison
[3] = target: T1, Recombinant Human GFRα-1/GDNF Rα-1 Fc …; assay: SPR (Biacore 2000), GFRα1-Fc captured on protein A, GDNFv as analyte, 1:1 Langmuir, 25 C
Description: (§1) A Biacore® 2000 instrument is used to measure the binding kinetics of GDNFv to human and rat GDNF family receptors (GFRα1 and GFRα2). Measurements are performed at 25° C. Samples are dissolved in HBS-EP buffer (150 mM sodium chloride, 3 mM EDTA, 0.005% (w/v) surfactant P-20, pH 7.4). Protein A, Staphylococcus aureus is immobilized on flow cells 1 to 4 of a CM4 sensor chip (GE Healthcare #BR-1005-39) at a level of ˜200 response units (RUs) using amine coupling chemistry to capture GFR Fc chimera (Recombinant Human GFRα-1/GDNF Rα-1 Fc Chimera; Recombinant Human GFRα-2/GDNF Rα-2 Fc Chimera; Recombinant Rat GFRα-1/GDNF Rα-1 Fc Chimera; Recombinant Mouse GFRα-2/GDNF Rα-2 Fc Chimera).
(§2) Binding is evaluated using multiple cycles. Each cycle consists of the following steps: 1) injection of about 10 μL of GFR at a concentration of ˜1.0 μg/mL and a flow rate of 10 μL/min., aiming at a capture of 120-150 RUs; 2) injection of 250 μL of GDNFv at a flow rate of 50 μL/min., in a final concentration rage between 10 nM and 0.04 nM followed by […]. for dissociation; and 3) regeneration using about 30 μL of 10 mM glycine hydrochloride, pH 1.5. Association and dissociation rates for each cycle are evaluated using a “1:1 (Langmuir) binding” model in the BIAevaluation software, version 4.1.

[4] = target: T2, Recombinant Rat GFRα-1/GDNF Rα-1 Fc Chimera (rat, UniProt Q62997 25-445); assay: SPR (Biacore 2000), rat GFRα1-Fc captured on protein A, GDNFv as analyte, 1:1 Langmuir, 25 C
T2 construct: Purchased Fc chimera; not shown: Fc part of a purchased Fc chimera
T2 sequence (looked up): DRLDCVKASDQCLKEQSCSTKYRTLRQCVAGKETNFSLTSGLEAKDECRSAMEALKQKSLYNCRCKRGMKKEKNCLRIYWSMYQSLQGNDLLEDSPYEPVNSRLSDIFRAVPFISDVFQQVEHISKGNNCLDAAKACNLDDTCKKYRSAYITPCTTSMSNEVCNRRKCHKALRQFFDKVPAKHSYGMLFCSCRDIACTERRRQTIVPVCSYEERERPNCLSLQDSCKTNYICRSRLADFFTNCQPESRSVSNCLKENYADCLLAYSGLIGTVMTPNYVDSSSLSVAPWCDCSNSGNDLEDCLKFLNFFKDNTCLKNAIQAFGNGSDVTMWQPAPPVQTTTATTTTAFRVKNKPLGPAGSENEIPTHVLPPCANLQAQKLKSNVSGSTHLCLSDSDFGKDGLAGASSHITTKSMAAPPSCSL
Description: as §1, §2

Sequence of human c-Ret (P07949 29-1114): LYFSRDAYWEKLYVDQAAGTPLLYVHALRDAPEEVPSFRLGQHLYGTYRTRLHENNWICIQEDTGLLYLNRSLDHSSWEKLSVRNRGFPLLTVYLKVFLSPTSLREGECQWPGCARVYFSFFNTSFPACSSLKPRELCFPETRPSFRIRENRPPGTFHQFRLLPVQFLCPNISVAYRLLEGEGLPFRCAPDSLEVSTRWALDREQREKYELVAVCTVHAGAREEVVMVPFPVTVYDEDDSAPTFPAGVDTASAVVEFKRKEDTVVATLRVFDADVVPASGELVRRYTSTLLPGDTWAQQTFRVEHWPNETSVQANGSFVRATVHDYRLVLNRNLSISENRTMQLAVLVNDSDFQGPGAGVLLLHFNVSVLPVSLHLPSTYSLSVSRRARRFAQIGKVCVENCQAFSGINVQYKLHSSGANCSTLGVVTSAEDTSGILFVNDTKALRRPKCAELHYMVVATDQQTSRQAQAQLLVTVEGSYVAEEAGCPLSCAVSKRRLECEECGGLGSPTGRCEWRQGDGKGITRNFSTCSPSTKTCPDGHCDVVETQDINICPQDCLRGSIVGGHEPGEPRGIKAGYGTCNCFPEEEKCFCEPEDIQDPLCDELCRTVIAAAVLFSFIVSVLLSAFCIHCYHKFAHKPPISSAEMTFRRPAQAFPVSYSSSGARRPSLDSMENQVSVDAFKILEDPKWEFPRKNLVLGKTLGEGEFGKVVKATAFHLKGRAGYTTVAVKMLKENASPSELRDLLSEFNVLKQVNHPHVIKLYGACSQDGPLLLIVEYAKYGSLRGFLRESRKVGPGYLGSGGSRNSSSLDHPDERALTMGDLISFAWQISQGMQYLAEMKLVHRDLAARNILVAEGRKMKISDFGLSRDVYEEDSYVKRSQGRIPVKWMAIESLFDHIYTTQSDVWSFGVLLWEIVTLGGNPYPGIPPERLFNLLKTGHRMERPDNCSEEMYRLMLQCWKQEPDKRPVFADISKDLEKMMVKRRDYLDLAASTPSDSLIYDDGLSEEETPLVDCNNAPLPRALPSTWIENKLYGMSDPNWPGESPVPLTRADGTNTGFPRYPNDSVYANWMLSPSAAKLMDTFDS

B1: CHO-Δ31-GDNF (SEQ ID NO: 8) (ligand)
chain: RGQRGKNRGCVLTAIHLNVTDLGLGYETKEELIFRYCSGSCDAAETTYDKILKNLSRNRRLVSDKVGQACCRPIAFDDDLSFLDDNLVYHILRKHSAKRCGCI
modifications: N-glycosylated at N49 (numbering of mature GDNF)
notes: Expressed in CHO cells; also called CHO-Δ31-GDNFv; WT CHO Δ31-GDNFv
**Q.** With B1 as the binder, how does the “c-Ret phosphorylation at Y1016, EC50” value (human c-Ret) read?
**A.** 0.008 to 0.015 µg/mL

**Q.** And the EC50 [1]?
**A.** 600 pM

**Q.** What about the Kd [2] of the same binder?
**A.** 29 pM

**Q.** And the Kd [3]?
**A.** 29 pM

**Q.** What about the koff [3] of the same binder?
**A.** 9e-05 s⁻¹

**Q.** And the kon [3]?
**A.** 3.8e+06 M⁻¹ s⁻¹

**Q.** And the Kd [4]?
**A.** 44 pM

**Q.** What about the koff [4] of the same binder?
**A.** 0.00024 s⁻¹

**Q.** What about the kon [4] of the same binder?
**A.** 5.6e+06 M⁻¹ s⁻¹

B2: CHO-Δ31-N38Q-D95E-GDNF (SEQ ID NO: 9) (ligand)
chain: B1 chain with N7Q, D64E
modifications: N-glycosylated at N49 (numbering of mature GDNF)
notes: Expressed in CHO cells; also called CHO-Δ31-N38Q-D95E-GDNFv; GDNF variant 2
**Q.** How did the “c-Ret phosphorylation at Y1016, EC50” value (human c-Ret) turn out when B2 was run?
**A.** 0.008 to 0.015 µg/mL

**Q.** And the EC50 [1]?
**A.** 800 pM

**Q.** What about the Kd [2] of the same binder?
**A.** 30 pM

**Q.** What about the Kd [3] of the same binder?
**A.** 30 pM

**Q.** What about the koff [3] of the same binder?
**A.** 0.00011 s⁻¹

**Q.** And the kon [3]?
**A.** 4.5e+06 M⁻¹ s⁻¹

**Q.** What about the Kd [4] of the same binder?
**A.** 20 pM

**Q.** What about the koff [4] of the same binder?
**A.** 0.00019 s⁻¹

**Q.** And the kon [4]?
**A.** 9.4e+06 M⁻¹ s⁻¹
